Reference: patent publication US11738082B2, “High concentration protein formulations with reduced viscosity” (Bhami's Research Laboratory, Pvt. Ltd., priority 2017, dated 2023)
Blank lines part the entries; values can stand above or below the compound they belong to.

Tests used:
[1] = tested on: Human Gamma Globulin (HGG), GLOBUCEL®; assay: Viscosity of aqueous solutions of Human Gamma Globulin (Cambridge VISCOlab5000 or DV2T cone and plate viscometer)
Experimental: Commercially obtained human gamma globulin (HGG), GLOBUCEL® (50 mg/mL) containing pharmaceutical excipients (Maltose) was dialyzed against water for 24 hr at 4° C. with three changes. To the aqueous solution of HGG, either histidine or phosphate or citrate buffer was added from the stock concentration of 1000 mM for histidine buffer or 1000 mM for citrate buffer or 1000 mM for phosphate buffer, pH 6.0 to get a final concentration of 25 mM each. The HGG solutions in various buffers were concentrated to a final volume of less than 150 μL using Vivaspin centrifugal concentrators (Sartorius). The collected protein sample was stored at 4° C. […] The protein concentrations were experimentally determined using the extinction coefficient of 1.4
[formula] at 280 nm. The viscosities of the solution were measured either using a Cambridge Viscometer, VISCOlab5000 using 70 μL of sample at 25° C. or using a DV2T cone and plate viscometer using 1.5 mL of sample at 25° C. at extrapolated zero shear rate.
Commercially obtained human gamma globulin (HGG), GLOBUCEL® (50 mg/mL) containing pharmaceutical excipients (Maltose) was dialyzed against water for 24 hr at 4° C. with three changes. To the aqueous solution of HGG, either citrate-phosphate buffer pH 5.0 or citrate-phosphate buffer pH 6.0 or citrate-phosphate buffer pH 7.0 was added from the stock concentration of 1000 mM for citrate buffer at pH 5.0 or pH 6.0 or pH 7.0 to get a final concentration of 25 mM each. The HGG solutions in various pH buffers were concentrated to a final volume of less than 150 μL using Vivaspin centrifugal concentrators (Sartorius). The collected protein sample was stored at 4° C. […] The protein concentrations were experimentally determined using the extinction coefficient of 1.4
Commercially obtained human gamma globulin (HGG), GLOBUCEL® (50 mg/mL) containing pharmaceutical excipients (Maltose) was dialyzed against water for 24 hr at 4° C. with three changes. To the aqueous solution of HGG, phosphate/citrate/histidine Buffer was added from the stock concentration of 1000 mM phosphate/citrate/histidine buffer, pH 6.0 to get a final concentration of 25 mM. To the buffered HGG different amino acid or its derivative was added individually and mixed until complete dissolution. The excipient containing HGG was concentrated to a final volume of less than 150 μL using Vivaspin centrifugal concentrators (Sartorius). The collected protein sample was stored at 4° C. […] The protein concentrations were experimentally determined using the extinction coefficient of 1.4
Commercially obtained human gamma globulin (HGG), GLOBUCEL® (50 mg/mL) containing pharmaceutical excipients (Maltose) was dialyzed against water for 24 hr at 4° C. with three changes. To the aqueous solution of HGG, phosphate/citrate/histidine Buffer was added from the stock concentration of 1000 mM phosphate/citrate/histidine buffer, pH 6.0 to get a final concentration of 25 mM. To the buffered HGG, different nucleosides or nucleotides or its derivative was added individually and mixed until complete dissolution. The excipient containing HGG was concentrated to a final volume of less than 150 μL using Vivaspin centrifugal concentrators (Sartorius). The collected protein sample was stored at 4° C.

Bevacizumab (AVASTIN®) = assay: Size Exclusion Chromatography of formulated Bevacizumab on storage; type: physicochemical; details: storage at 25° C., formulated with tryptophan + nicotinic acid (acid form), SEC
Experimental: The collected protein sample was stored at 4° C. […] Reported protein concentrations represent the range of all protein samples in each Table or Figure. Specifically, reported values are the median plus or minus half the range. The protein concentrations were experimentally determined using the extinction coefficient of 1.54

Etanercept (ENBREL®) = target: T1, Etanercept (ENBREL®) (Homo sapiens, UniProt P20333); assay: Viscosity of Etanercept solutions (VISCOlab5000 or DV2T cone and plate viscometer); type: physicochemical; details: for Viscosity, cP: 25 mM phosphate buffer pH 6.0, 25° C.
T1 construct: purchased ENBREL®
T1 sequence (P20333 with tags, fused parts or gaps limits assumed): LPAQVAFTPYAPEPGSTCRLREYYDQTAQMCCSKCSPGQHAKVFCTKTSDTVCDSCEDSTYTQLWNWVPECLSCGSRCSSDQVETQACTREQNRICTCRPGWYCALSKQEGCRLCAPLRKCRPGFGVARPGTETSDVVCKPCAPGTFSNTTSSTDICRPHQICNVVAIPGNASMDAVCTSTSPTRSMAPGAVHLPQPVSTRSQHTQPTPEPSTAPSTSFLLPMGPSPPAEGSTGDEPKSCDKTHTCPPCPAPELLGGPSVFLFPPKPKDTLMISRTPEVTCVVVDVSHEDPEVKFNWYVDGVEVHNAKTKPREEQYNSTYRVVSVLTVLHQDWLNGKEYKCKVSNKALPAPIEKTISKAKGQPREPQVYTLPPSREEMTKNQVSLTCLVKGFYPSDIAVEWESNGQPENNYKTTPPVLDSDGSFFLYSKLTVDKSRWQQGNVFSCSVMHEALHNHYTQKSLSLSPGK
Experimental: Commercially obtained Etanercept, ENBREL®, 25 mg as a lyophilized powder (25 mg Etanercept, 40 mg mannitol, 10 mg sucrose, and 1.2 mg Tromethamine and for reconstitution 0.9% benzyl alcohol in water) was dialyzed against 25 mM phosphate buffer, pH 6.0 for 24 hr at 4° C. with three changes. To the dialysed Etanercept different viscosity-reducing agent(s) was added individually or in combination and mixed until complete dissolution. […] The collected protein sample was stored at 4° C.
[formula] at 280 nm. […] Results
Commercially obtained Etanercept, ENBREL®, 25 mg as a lyophilized powder (25 mg Etanercept, 40 mg mannitol, 10 mg sucrose, and 1.2 mg Tromethamine and for reconstitution 0.9% benzyl alcohol in water) was dialyzed against 25 mM phosphate buffer, pH 6.0 for 24 hr at 4° C. with three changes.
To the dialysed samples of above protein agents, a combination of viscosity-reducing agents nicotinic acid (acid form) and tryptophan were added and mixed until complete dissolution. […] The collected protein samples were stored at 4° C.

Rituximab (RITUXAN®) [2] = assay: Size Exclusion Chromatography of formulated Rituximab on storage; type: physicochemical; details: storage at 25° C., formulated with tryptophan + nicotinic acid (acid form), 250 mg/mL, SEC
Experimental: The collected protein sample was stored at 4° C. […] The protein concentrations were experimentally determined using the extinction coefficient of 1.7

Rituximab (RITUXAN®) [3] = assay: Percent reduction in aggregation of Rituximab by Size Exclusion Chromatography; type: physicochemical; details: with nicotinic acid and tryptophan, 250-275 mg/mL, versus control at 0 time point = 100%
Experimental: To the buffered antibody solutions, different aggregation reducing-agents were added individually or in combination and mixed until complete dissolution. […] The collected protein sample was stored at 4° C. […] The amount of reduction in aggregation is calculated setting the values at 0 time point equal to 100% in control (without any aggregation-reducing agent) and the reduction in aggregation in test samples (with aggregation-reducing agent) is expressed as percent reduction when compared to control at 0 time point.

Viscosity (cP) @ 25° C. ([1]; HGG 217 mg/mL, excipient 20 mg/mL (53 mM), 25 mM citrate buffer pH 6.0): 87 cP | Viscosity (cP) @ 25° C. ([1]; HGG 246 mg/mL, excipient 20 mg/mL (53 mM), 25 mM phosphate buffer pH 6.0): 54 cP
Compound: OC[C@H]1O[C@H](O[C@H]2O[C@H](CO)[C@@H](O)[C@H](O)[C@H]2O)[C@H](O)[C@@H](O)[C@@H]1O [Trehalose dihydrate]

Compound: N[C@@H](Cc1c[nH]c2ccccc12)C(=O)O [Tryptophan]
Viscosity (cP) @ 25° C. ([1]; HGG 200 mg/mL, excipient 6 mg/mL (29 mM), 25 mM phosphate buffer pH 6.0): 14 cP | Viscosity (cP) @ 25° C. ([1]; HGG 231 mg/mL, excipient 6 mg/mL (29 mM), 25 mM citrate buffer pH 6.0): 60 cP | Viscosity (cP) @ 25° C. ([1]; HGG 243 mg/mL, excipient 6 mg/mL (29 mM), 25 mM phosphate buffer pH 6.0): 35 cP | Viscosity (cP) @ 25° C. ([1]; HGG 256 mg/mL, excipient 6 mg/mL (29 mM), 25 mM histidine buffer pH 6.0): 18 cP

Compound: Cl.NCCc1ccc(O)cc1 [Tyramine-HCl]
Viscosity (cP) @ 25° C. ([1]; HGG 215 mg/mL, excipient 10 mg/mL (58 mM), 25 mM phosphate buffer pH 6.0): 145 cP

Viscosity (cP) @ 25° C. ([1]; HGG 235 mg/mL, excipient 1 mg/mL (9 mM), 25 mM phosphate buffer pH 6.0): 140 cP
Compound: O=c1cc[nH]c(=O)[nH]1 [Uracil]

Viscosity (cP) @ 25° C. ([1]; HGG 203 mg/mL, excipient 10 mg/mL (41 mM), 25 mM phosphate buffer pH 6.0): 28 cP
Compound: O=c1ccn([C@@H]2O[C@H](CO)[C@@H](O)[C@H]2O)c(=O)[nH]1 [Uridine]

Compound: Bevacizumab: Commercially obtained Bevacizumab, AVASTIN®, dialyzed against 25 mM phosphate buffer, pH 6.0
Degradation peak area (%) (Bevacizumab (AVASTIN®); 0 day): Nil | Standard peak area (%) (Bevacizumab (AVASTIN®); 0 day): 99.39% | Degradation peak area (%) (Bevacizumab (AVASTIN®); 7 days): Nil | Standard peak area (%) (Bevacizumab (AVASTIN®); 7 days): 99.118%

Compound: Etanercept
Viscosity, cP (Etanercept (ENBREL®); Etanercept 50 mg/mL, with 10 mg/mL nicotinic acid (acid form) + 6 mg/mL tryptophan): 2 cP | Viscosity, cP (Etanercept (ENBREL®); Etanercept 50 mg/mL, without excipient): 35 cP | Viscosity, cP (Etanercept (ENBREL®); Etanercept 100 mg/mL, with 10 mg/mL nicotinic acid (acid form) + 6 mg/mL tryptophan): 3 cP | Viscosity, cP (Etanercept (ENBREL®); Etanercept 100 mg/mL, without excipient): 72 cP | Viscosity, cP (Etanercept (ENBREL®); Etanercept 150 mg/mL, with 10 mg/mL nicotinic acid (acid form) + 6 mg/mL tryptophan): 11 cP | Viscosity, cP (Etanercept (ENBREL®); Etanercept 150 mg/mL, without excipient): 135 cP | Viscosity, cP (Etanercept (ENBREL®); Etanercept 175 mg/mL, with 10 mg/mL nicotinic acid (acid form) + 6 mg/mL tryptophan): 17 cP | Viscosity, cP (Etanercept (ENBREL®); Etanercept 175 mg/mL, without excipient): 160 cP | Viscosity, cP (Etanercept (ENBREL®); Etanercept 200 mg/mL, with 10 mg/mL nicotinic acid (acid form) + 6 mg/mL tryptophan): 23 cP | Viscosity, cP (Etanercept (ENBREL®); Etanercept 200 mg/mL, without excipient): 230 cP | Viscosity, cP (Etanercept (ENBREL®); Etanercept 225 mg/mL, with 10 mg/mL nicotinic acid (acid form) + 6 mg/mL tryptophan): 40 cP | Viscosity, cP (Etanercept (ENBREL®); Etanercept 225 mg/mL, without excipient): 345 cP | Viscosity, cP (Etanercept (ENBREL®); Etanercept 250 mg/mL, with 10 mg/mL nicotinic acid (acid form) + 6 mg/mL tryptophan): 65 cP | Viscosity, cP (Etanercept (ENBREL®); Etanercept 250 mg/mL, without excipient): 439 cP | Viscosity, cP (Etanercept (ENBREL®); Etanercept 275 mg/mL, with 10 mg/mL nicotinic acid (acid form) + 6 mg/mL tryptophan): 77 cP | Viscosity, cP (Etanercept (ENBREL®); Etanercept 275 mg/mL, without excipient): 1130 cP | Viscosity, cP (Etanercept (ENBREL®); Etanercept 300 mg/mL, with 10 mg/mL nicotinic acid (acid form) + 6 mg/mL tryptophan): 139 cP | magnitude of viscosity-reducing effects (Etanercept (ENBREL®); Etanercept 275±10 mg/mL, nicotinic acid (acid form) and tryptophan added to phosphate buffer): 14.6 fold

Compound: L-Pantothenic Acid hemicalcium salt
Viscosity (cP) @ 25° C. ([1]; HGG 182 mg/mL, excipient 10 mg/mL (42 mM), 25 mM phosphate buffer pH 6.0): 14 cP

Viscosity (cP) @ 25° C. ([1]; HGG 228 mg/mL, excipient 0.07%, 25 mM citrate buffer pH 6.0): 78 cP | Viscosity (cP) @ 25° C. ([1]; HGG 241 mg/mL, excipient 0.07%, 25 mM phosphate buffer pH 6.0): 84 cP
Compound: Polysorbate 80

Compound: Rituximab: Commercially obtained Rituximab, RITUXAN®, dialyzed against 25 mM phosphate buffer, pH 6.0
Aggregation peak area (%) (Rituximab (RITUXAN®) [2]; 0 day): 1.027% | Degradation peak area (%) (Rituximab (RITUXAN®) [2]; 0 day): Nil | Aggregation peak area (%) (Rituximab (RITUXAN®) [2]; 7 days): 0.96% | Degradation peak area (%) (Rituximab (RITUXAN®) [2]; 7 days): Nil | Percent reduction in aggregation (Rituximab (RITUXAN®) [3]; After 24 hours): 90% | Percent reduction in aggregation (Rituximab (RITUXAN®) [3]; After 48 hours): 100%
